Measured values published in the DeepSol protein solubility set.

assay: soluble on expression in E. coli; label from the status in PepcDB or PDB records

Sequence | soluble on expression in E. coli
MQDFKKLPTVLTAEELIDKIFRRAARVEGRNPKEKALNKLATISNVSRDYFGKIIGAHPSYENLPDFYREMVDVVVGIRQLKKSLVALKWADGMIQKVVSRAVREVKGGKNPSAVVKSAYGRVASIIEQIDDELRFLNDAKNRMREIPILQDLPTIVVAGYPNVGKSSLVARISTVKPEVASYPFTTKKINLGFAEFAGKRVQIIDTPGLLDRPLSKRNRIERRAVLALKHLADIILFVIDPTETCGYSLEKQLSLLEEIKGYFAKPTVEVYSKADMHDRRDRQAYSAVTGEGIDELIKEIEKMVKIHSQTSTVIAPSGQTSTQEQHSAAALEHHHHHH | not soluble
MAINLELPRKLQAIIVKTHQGAAEMMRPIARKYDLKEHAYPVELDTLINLFEGAAESFNFAGAHSLRDEDEGKDENHNGANMAAVVQTMEASWGDVAMMLSLPYQGLGNAAISAVATDEQLERLGKVWAAMAITEPEFGSDSAAVSTTATLDGDEYVINGEKIFVTAGSRATHIVVWATLDKSLGRPAIKSFIVPREHPGVTVERLEHKLGIKGSDTAVIRFDNARIPKGNLLGNPEIEVGKGFAGVMETFDNTRPIVAAMAVGIGRAALEEIRSVLTGAGVEISYDKPSHTQSAAAAEFLRMEADWEASYLLSLRAAWQADNNIPNSKEASMSKAKAGRMASDVTCKTVELAGTTGYSEQSLLEKWARDSKILDIFEGTQQIQQLVVARRLLGLSSSELK | not soluble
GMVYVDPDRFDELVAEALDGIPEEFARAMRNVAVFVEDEPDDPELLGLYVGIPLTERTTAYGGVLPDRIIIYRNTICALCETESEVIDEVRKTVVHEIAHHFGIDDERLHELGY | soluble
ISFEINGIKITTYPPPFRIFLEIDNKQEFEKLDRIRKNVDVVVLGFPVGHYDLDEVKNKVKQLVDYGYVVGIDAESPRELKEGVRAGASFVFNLNENNFEELEEIRKEAAFVVAPFNTENRGEITIDLVKKAKQKGFDKLIADPVLSPPLRGLVSSIIGYKYVRETLQDIPILMGILNVTELIDADSIGMNALLTAIAGELGISNLLIMEKGKTRWSSWEVSQATKMISVALKENRLPKDIGIDLLVLKDKRRFRESFNADVIVNRRIEPEMDNTGFAKIFVSEDGFGVEWIGKNKITIKGKDGLSIGRELIRRVKDISKEHAVYIGYELAKAEIAYQLDKNYIQDKPLF | not soluble
MSEGWNIAVLGATGAMGEALLETLAERQFPVGEIYALARNESAGEQLRFGGKTITVQDAAEFDWTQAQLAFFVAGKEATAAWVEEATNSGCLVIDSSGLFALEPDVPLVVPEVNPFVLTDYRNRNVIAVPDSLTSQLLAALKPLIDQGGLSRISVTSLISASAQGKKAVDALAGQSAKLLNGIPIDEEDFFGRQLAFNMLPLLPDSEGSVREERRIVDEVRKILQDEGLMISASVVQAPVFYGHAQMVNFEALRPLAAEEARDAFAQGEDIVLSEENEFPTQVGDASGTPHLSVGCVRNDYGMPEQVQFWSVADNVRFGGALMAVKIAEKLVQEYLY | not soluble
MGSDKIHHHHHHMNPLDLIAKRAYPYETEKRDKTYLALNENPFPFPEDLVDEVFRRLNSDALRIYYDSPDEELIEKILSYLDTDFLSKNNVSVGNGADEIIYVMMLMFDRSVFFPPTYSCYRIFAKAVGAKFLEVPLTKDLRIPEVNVGEGDVVFIPNPNNPTGHVFEREEIERILKTGAFVALDEAYYEFHGESYVDFLKKYENLAVIRTFSKAFSLAAQRVGYVVASEKFIDAYNRVRLPFNVSYVSQMFAKVALDHREIFEERTKFIVEERERMKSALREMGYRITDSRGNFVFVFMEKEEKERLLEHLRTKNVAVRSFREGVRITIGKREENDMILRELEVFK | soluble
MWRVGVYSSLRGYKRLNFCCEMLIAAYPKVGECAREGLMDKEVCINAAKGRFLGLRLPELFGGSDMRLNRSCRRRNMKLAAWCMLIQCDSRGGNHAAEVREIGDITKIAICQQCDFECAGPSANFKVTRLQGLRTLKAANRSESLNVEGCYALQSLLM | not soluble
MRQSTLHTRLSTGPGGSMRSSIEIFNIRTRKMRVVWQTPELFEAPNWSPDGKYLLLNSEGLLYRLSLAGDPSPEKVDTGFATICNNDHGISPDGALYAISDKVEFGKSAIYLLPSTGGTPRLMTKNLPSYWHGWSPDGKSFTYCGIRDQVFDIYSMDIDSGVETRLTHGEGRNDGPDYSPDGRWIYFNSSRTGQMQIWRVRVDGSSVERITDSAYGDWFPHPSPSGDKVVFVSYDADVFDHPRDLDVRVQLMDMDGGNVETLFDLFGGQGTMNSPNWSPDGDEFAYVRYFPVE | soluble
